Molecular target: recombinant HPV16 E6 protein (human papillomavirus type 16) (UniProt P03126)
Experiment: SPR

Sequence of UniProt P03126 (P03126 whole entry): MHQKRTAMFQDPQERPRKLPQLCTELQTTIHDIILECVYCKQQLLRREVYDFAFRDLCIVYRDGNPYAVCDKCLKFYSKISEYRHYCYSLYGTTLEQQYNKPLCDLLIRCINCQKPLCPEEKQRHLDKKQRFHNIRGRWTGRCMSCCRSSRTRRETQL

koff: 0.000886 s⁻¹
Substance: ZWT affibody (original affibody scaffold molecule, wild-type Z domain) (designed binder)

Reference: publication PMC8181454
